According to IntAct's records for PubMed 31663853:

B1: Protein phosphatase 1H (Homo sapiens), Q9ULR3 (parent)
chain: MLTRVKSAVANFMGGIMAGSSGSEHGGGSCGGSDLPLRFPYGRPEFLGLSQDEVECSADHIARPILILKETRRLPWATGYAEVINAGKSTHNEDQASCEVLTVKKKAGAVTSTPNRNSSKRRSSLPNGEGLQLKENSESEGVSCHYWSLFDGHAGSGAAVVASRLLQHHITEQLQDIVDILKNSAVLPPTCLGEEPENTPANSRTLTRAASLRGGVGAPGSPSTPPTRFFTEKKIPHECLVIGALESAFKEMDLQIERERSSYNISGGCTALIVICLLGKLYVANAGDSRAIIIRNGEIIPMSSEFTPETERQRLQYLAFMQPHLLGNEFTHLEFPRRVQRKELGKKMLYRDFNMTGWAYKTIEDEDLKFPLIYGEGKKARVMATIGVTRGLGDHDLKVHDSNIYIKPFLSSAPEVRIYDLSKYDHGSDDVLILATDGLWDVLSNEEVAEAITQFLPNCDPDDPHRYTLAAQDLVMRARGVLKDRGWRISNDRLGSGDDISVYVIPLIHGNKLS

Variants of: B1
Settings: with rab10_human RAB10, P61026
Chain of rab10_human RAB10, P61026 (P61026 whole entry): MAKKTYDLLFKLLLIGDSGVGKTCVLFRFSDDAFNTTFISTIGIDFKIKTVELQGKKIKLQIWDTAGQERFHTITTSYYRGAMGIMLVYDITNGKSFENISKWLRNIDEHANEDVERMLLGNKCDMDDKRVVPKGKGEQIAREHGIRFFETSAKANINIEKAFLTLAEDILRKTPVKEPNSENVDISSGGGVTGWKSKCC

effect of a mutation on the interaction | Variant
causing an interaction | D288E
causing an interaction | D288A
